Measured values from patent US7968093B2, “Fully human antibodies directed against the human insulin-like growth factor-1 receptor” (ImClone LLC, priority 2003, dated 2011).
pKd: −log10 of the molar value.

Assays:
IGF-IR on MCF7 cells = target: T1, IGF-IR on MCF7 cells (Homo sapiens, UniProt P08069); assay: Internalization of 125I-A12 after binding to IGF-IR; format: cell-based; conditions: 37° C., 30-180 minutes
T1 construct: endogenous in cells
Description: Antibody A12 was radio-iodinated with ^125iodine using IODO-beads (Pierce) according to manufacturer's instructions. MCF7 human breast cancer cells were plated into 6-well plates and cultured overnight to 50% confluence. One microgram of ^125I-A12 was added to each well and incubated at 37° C. or kept on ice at 4° C. Plates were incubated for 30 minutes, 90 minutes, or 180 minutes and each time point performed in triplicate. The culture at 4° C. was held for 180 minutes. At each time point, wells were washed 1× w/PBS, then stripped for 5 minutes with 100 mM glycine-HCl, 2M urea, pH 2.5. The stripped material, representing membrane bound antibody was kept on ice for counting. Wells were then washed 3 times with PBS and cells solubilized with 1N NaOH/1% TritonX100. The solubilized fraction represented the internalized antibody. Stripped and solubilized fractions were then read on a gamma counter and plotted with standard deviation.

IGF-IR = IGF-IR (Homo sapiens, UniProt P08069); assay: BIAcore binding kinetics on immobilized soluble IGF-IR; parameters: recombinant extracellular portion of human IGF-IR was used to screen; conditions: full IgG, BIACORE 3000
Description: Binding kinetic analysis was performed on 2F8 IgG using a BIAcore unit.
Binding results were determined by human IGF-IR ELISA and represent the concentration of titered antibody necessary to achieve 50% binding relative to saturation. Blocking results represent the level of antibody necessary to inhibit 50% binding of ^125I-IGF-I ligand to immobilized human IGF-IR. Affinity was determined by BIAcore analysis according to manufacturer's specifications (Pharmacia BIACORE 3000). Soluble IGF-IR was immobilized on the sensor chips and antibody binding kinetics determined.

mouse IGF-IR = target: T2, mouse IGF-IR (Mus musculus, UniProt Q60751); assay: FACs binding analysis to mouse cell lines; format: cell-based; conditions: mouse tumor cell line Lewis Lung carcinoma
T2 construct: endogenous in cells; host or cells: Lewis Lung carcinoma (mouse); R- mouse embryo fibroblasts (IGF-IR negative control)
T2 sequence (Q60751 31-737 limits assumed): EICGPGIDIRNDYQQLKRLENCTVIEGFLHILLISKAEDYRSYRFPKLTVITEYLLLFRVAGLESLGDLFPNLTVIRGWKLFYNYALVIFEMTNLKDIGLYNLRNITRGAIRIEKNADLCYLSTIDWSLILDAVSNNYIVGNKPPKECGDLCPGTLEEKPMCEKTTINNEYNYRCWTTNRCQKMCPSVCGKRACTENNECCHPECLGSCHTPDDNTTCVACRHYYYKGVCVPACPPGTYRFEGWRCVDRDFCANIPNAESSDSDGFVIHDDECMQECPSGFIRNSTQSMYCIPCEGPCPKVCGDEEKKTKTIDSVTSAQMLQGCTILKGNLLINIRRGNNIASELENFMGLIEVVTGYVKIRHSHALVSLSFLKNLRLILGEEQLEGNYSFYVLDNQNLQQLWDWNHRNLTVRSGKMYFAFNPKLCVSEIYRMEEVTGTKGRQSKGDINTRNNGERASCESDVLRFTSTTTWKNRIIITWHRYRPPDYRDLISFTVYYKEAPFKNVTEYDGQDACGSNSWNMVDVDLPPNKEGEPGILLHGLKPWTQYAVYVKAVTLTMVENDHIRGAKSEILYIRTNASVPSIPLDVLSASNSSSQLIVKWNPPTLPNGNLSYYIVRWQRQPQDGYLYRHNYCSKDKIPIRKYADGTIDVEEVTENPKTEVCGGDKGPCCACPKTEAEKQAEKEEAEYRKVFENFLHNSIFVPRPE
T2 sequence (Q60751 742-1373 limits assumed): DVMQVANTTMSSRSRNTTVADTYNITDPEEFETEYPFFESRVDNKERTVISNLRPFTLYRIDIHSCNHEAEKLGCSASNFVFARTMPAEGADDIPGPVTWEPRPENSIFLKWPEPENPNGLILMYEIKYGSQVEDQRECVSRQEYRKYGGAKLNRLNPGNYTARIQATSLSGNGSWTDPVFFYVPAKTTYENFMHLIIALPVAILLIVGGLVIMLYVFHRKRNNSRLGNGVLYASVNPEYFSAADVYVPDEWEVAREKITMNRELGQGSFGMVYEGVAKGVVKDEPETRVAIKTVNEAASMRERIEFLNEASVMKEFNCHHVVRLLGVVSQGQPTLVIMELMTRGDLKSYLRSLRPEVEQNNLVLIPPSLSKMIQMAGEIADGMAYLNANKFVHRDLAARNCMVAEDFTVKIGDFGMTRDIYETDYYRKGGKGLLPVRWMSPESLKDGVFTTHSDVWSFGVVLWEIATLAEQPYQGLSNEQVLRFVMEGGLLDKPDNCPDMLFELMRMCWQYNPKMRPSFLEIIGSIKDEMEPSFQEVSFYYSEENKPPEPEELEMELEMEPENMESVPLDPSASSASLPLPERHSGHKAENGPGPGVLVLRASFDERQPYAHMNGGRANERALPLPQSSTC

internalization of labeled antibody (IGF-IR on MCF7 cells): rapidly internalized
Affinity Koff (IGF-IR): Koff = 3.0 × 10^−5
Affinity Kon (IGF-IR): Kon = 7.2 × 10^5
pKd (IGF-IR; read-out: Affinity KD): 10.39
FACs shift (mouse IGF-IR): partially shift
Substance: A12: fully human IgG1 anti-IGF-IR antibody, lambda light chain; VH SEQ ID NO:2, VL SEQ ID NO:10; affinity matured from 2F8
